The values below come from the DeepSol protein solubility set.

This series can be described thus: soluble on expression in E. coli; label from the status in PepcDB or PDB records.
“SEETYTDSLDPEKLLQCPYDKNHQIRACRFPYHLIKCRKNHPDVASKLATCPFNARHQVPRAEISHHISSCDDRSCIEQDVVNQTRSLRQETLAESTWQCPPCDEDWDKDLWEQTSTPFAWGTTHYSDNNSPASNIVTEHKNNLASGMRVPKSLPYVLPWKNNGNAQ”: the “soluble on expression in E. coli” value is “soluble”. Consider “SEILISAVATDLISRFISSVTQNYRNHIHKEDDRRRLERILLRMHSVVEEAGGRHITNQGMILQLKGLVEGFYLGYYMLDKIKFQPPEYEVSHEIQSFALSACNSAKRFRFADAISKRTPVAFGSRSRTNLKDVVDGLETKIADMREFVILLGSHPRLPRQPYSTYLYIDNCMFGRRIEKEQVINFLLCNDPHDPYVSILPIIGPQRIGKKTLVQHACLDERVRDCFSHIFFFKEDDLKTGELSLNSKASQGKYLFVIEFIWDVDEAAWTKFQSYLQNMPATGIKVVVIGRTEDIAKFGTSQPIRVKRLSEEEYWYYFKALAFGSMDPDEHPKLASLAMQLSTEMNGSFLGATMFGELLRANPNTQFWKRILLFLRELARKHLTSSGLHPEDLFERNIPVDLSRIAVVDGQVQDFMVYDVRVAGPAEGELPKLTSRDILLGGDIPVEDKFDVLVWRSRIPPYCNYIVTYEKQKPRRMVGKRNTIYL”, for which the “soluble on expression in E. coli” value was “soluble”. For “SEISRQEFQRRRQALVEQMQPGSAALIFAAPEVTRSADSEYPYRQNSDFWYFTGFNEPEAVLVLIKSDDTHNHSVLFNRVRDLTAEIWFGRRLGQDAAPEKLGVDRALAFSEINQQLYQLLNGLDVVYHAQGEYAYADVIVNSALEKLRKGSRQNLTAPATMIDWRPVVHEMRLFKSPEEIAVLRRAGEITAMAHTRAMEKCRPGMFEYHLEGEIHHEFNRHGARYPSYNTIVGSGENGCILHYTENECEMRDGDLVLIDAGCEYKGYAGDITRTFPVNGKFTQAQREIYDIVLESLETSLRLYRPGTSILEVTGEVVRIMVSGLVKLGILKGDVDELIAQNAHRPFFMAGLSHWLGLDVHDVGVYGQDRSRILEPGMVLTVEPGLYIAPDAEVPEQYRGIGIRIEDDIVITETGNENLTASVVKKPEEIEALMVAARKQ”, the “soluble on expression in E. coli” value is listed as “soluble”. For the sequence “SENSDVINFSCLEKELHSALQADRKYQRENDAKFRALNQKVASYEEFRDIVLASHLKPLDRNDISGSPRKQPWNPVACRTNYVCASSEQVQPQLSEVQPRSASEFIRDWRRFAGCSFEKYSLLVSLGGEALQKIFSTEIGLGLLGEFLLILSQCLKSGDEDRVTGVLDGLSKTGRFSINLSLLSQAEQEACEELFNKLKVAAGECHPYKDNSNTSVVCEAGLTHMEDNKTDITTTLKELAGKYGTEK”, the “soluble on expression in E. coli” value is on record as “soluble”. Turning to “SEQTEVMKPETLEDLIKTLHQIFQSDSINVEEVQNLMESYQSNPQDWMKFAKFDQYRYTRNLVDEGNGKFNLMILCWGEGHGSSIHDHTDSHCFLKLLQGQLKETLFDWPDRKLQSGMKPRGQSVLQENQCAYINDSLGLHRVENVSHTEPAVSLHLYSPPFQSCRTFDQRTGHHNTVKMTFWSKYGERTPYELSVSQENN”, the “soluble on expression in E. coli” value is reported as “soluble”. In the case of “SERLTSPPRLMIVSDLDETMVDHHKDPENLALLRFNSLWEDAYRHDSLLVFSTGRAQTMYKKLRKEKPLLTPDVIITSVGTEIAYGNSMVPDDNWVEILNKKWDRGIVQEETSKFPELTLQGETEQRPHKLSFNIDKSKVKAVTKELSPRLEKRGVDVKFIFSGGNAFDVLAKGGGKGQALAYLLKKLKTEGKLPINTLACGDSGNDTELFTIPNVYGVMVSNAQEELLEWYAENAKDNANIIHASERCAGGITQAIGHFKLGPNLSPRDVSDFLECKADNVNPGHEVVKFFLFYERWRRGEVENCTTYTSSLKASCHPSGVFVHPSGAEKSLRDTIDELGKYYGDKKGKKFRVWTDQVLATDTTPGTWIVKLDKWEQTGDERKCCTTTVKFTSKEGEGFVWEHVQQIWSEETEIKDDSNWII”, the “soluble on expression in E. coli” value is “not soluble”. Regarding SESQEEIIHNIARHLAQIGDEMDHNIQPTLVRQL, the “soluble on expression in E. coli” value was “soluble”.

As for “SFAAEITLTTPDNFALKADYYPSKNSVKPANNRAVLMLHQCNYNRTMYNNIGAQLAQQSIHALSLDFRGFGESISSEFNVADVRKLPQAERGKAWSNMSSHWPEDVQLAFDYLKEKVGNNGKVGIIGASCGGSQAINLAEKENISAISFFSSSQRDENIARYGKTLVDTPTLIIASEDDGRTFTSAQQLFSTAKNPSSKMISYKGSMHGYPLLASDKALETTIVTWFSNEL”, the “soluble on expression in E. coli” value is listed as “not soluble”. Take “SFELPALPYAKDALAPHISAETIEYHYGKHHQTYVTNLNNLIKGTAFEGKSLEEIIRSSEGGVFNNAAEVWNHTFYWNCLAPNAGGEPTGKVAEAIAASFGSFADFKAQFTDAAIKNFGSGWTWLVKNSDGKLAIVSTSNAGTPLTTDATPLLTVDVWEHAYYIDYRNARPGYLEHFWALVNWEFVAKNLAA”: the “soluble on expression in E. coli” value is recorded as “soluble”. Under “SFGVIQKEERFNEVFLNYFKENKIEIAHAITKLFPFLESLRDHSFITDKIYADSYEACRNSVPIVKVVYNVLSHLERLSDSSFLWALFNRVNLKEYPALREIHKSLGTELQDRYSPQKCKQEEQKLATVHPSYEQGTNLCTHEKWAQPCFVKQDNLQEPEIQQNQVDEIIVISSESSECSDEDEEDQALGTGLRRQMNKEAEDSAPHRRSRT” stands “soluble”; under “SFRRKLTALEYHNPTGFDCKDETEFRNFIVWLEDQKIRHYKIEDRGNLRNIPSSDWPKYFEKYLQDVNCPFSVQERQETVDWLLGLAVRFEYGDNVEKYRNCKPVTETNDVQKSADPLINLDSNNPDFKAGVLALANLLKIQRHDDYLVMLKAIKILVQERLTPDAIAKASQAKEGLPVTLDKHILGFDTGDATLNEAAQVLRLLHIEELRELQTKINEAIVAVQAIIADPKTDHRLGKVGR”, “soluble”; under “SGEIKVSPDYNWFRSTVPLKKIIVDDDDSKIWSLYDAGPRSIRCPLIFLPPVSGTADVFFQQILALTGWGYRVIALQYPVYWDHLEFCDGFRKLLDHLQLDKVHLFGASLGGFLAQKFAEYTHKSPRVHSLILCNAFSDTSIFNQTWTANSFWLMPAFMLKKIVLGNFSSGPVDPMMADAIDFMVDRLESLGQSELASRLTLNCQNSYVEPHKIRDIPVTIMDIHLLQFHGTKYAAIDPSVVSAEELDVQKGQLDLSQEEP”, “soluble”.

Turning to “SGIMNIILQDNVQEIEGVVVTGYQQIKNRVFTGAAASVKLDEIKLNGVSDVSRMLEGRIAGLSIQNVTGSFGAAPRINIRGGASIMGNVQPLWVIDGAVYEDLVSLTLDQLASGDAVTLISSAVAGLNASDIEDIQVLKDASATSIYGARALNGVIVITTRSGKRNA”, the “soluble on expression in E. coli” value was “not soluble”. With “SGPWANICAGKSSNEIRTCDRHGCGQYSAQRSQRPHQGVDVLCSAGSTVYAPFTGMIVGQEKPYQNKNAINNGVRISGRGFCVKMFYIKPIKYKGPIKKGEKLGTLLPLQKVYPGIQSHVHIENCDSSDPTAYL”, the “soluble on expression in E. coli” value is “soluble”.

Turning to “SGRARRAEQDARAVELGLQLVGDNLQVLHAGNPAEPALRAYLGMGLSELHVLEQPDGADALAALTDYIRDSGAQMVLAGSQAETGEGSGMLPFLLAEGLGWPLVTGLAEVESLSNGTALVLQALPRGQRRRLKVRLPFLATVDNAAPAPRQSAYGPAQRGILDVDKIETVIDDLFTAQSLQPAKPRPKRLKVIKAKSGADRMKAATAKASGGSGQVLKGLSPEQSAAAILKLLIDEGVV”, the “soluble on expression in E. coli” value is “not soluble”.

Consider “SGSAARQPLFSFGVIADVQYADISDGRSFLGVPRYYRNSILVLQRAVETWNQHGNLKFVINMGDIVDGFCPKDQSLAATKKLVHEFEKFNGPVYHMIGNHCLYNLPREELLPLLKIPGRDGNAYYDFSPTPEYRVVVLDGYDISAVGWPQEHPNTIAALKILEEKNPNTDKNSPAGLEDVARRFVKYNGGVGEKQLQWLDSVLQDASNSNQRVIVCGHVPMSPGVASKAALLWNFDEVMNIIHKYDSVKVCLSGHDHKGGYFVDSHGVHHRSLEAALECPPGTYSFGYIDVYDNKLSLVGTDRMQSTDFEN”, for which the “soluble on expression in E. coli” value was “soluble”. On to “SGTPNDQAVLQAIFNPDTPFGDVVGLDLEEAEEGDEDGVFPQAQLEHSKALELQGVRAAEAGDLHTALEKFGQAISLLPDRASAYNNRAQARRLQGDVAGALEDLERAVTLSGGRGRAARQSFVQSGLLARFQGRDDDARRDFEKAARLGSPFARRQLVLLNPYAALCNRMLADMMGQLRAPSNGR”, for which the “soluble on expression in E. coli” value is on record as “soluble”. As to “SHSKLRIKKEIEPIVSALTFLSQGQSAALNEKGNFSEIKTALNETSHILEESNMMKEQWIRGVSHDLRNPLMLISGYTSQLEQQYGHGKQTEQIENQIQNMKEMISNLNLSYLLDNQKRHSKFSSLDLAVVLRSVIADILNNYETVILHFDLPTEAVLVKGDATLLERAFRNLLLNSIKHSGSNQIDLTYQLFDNKVIIIIADKGTITAQKIVELNQKSTNYESHGMGTVITKQIIKLHQGETVFSDNHPGLKVTIVLPVTDEF”, the “soluble on expression in E. coli” value is reported as “not soluble”. As for “SIVADSECRAELKDYLRFAPGGVGDSGPGEEQRESRARRGPRGPSAFIPVEEVLREGAESLEQHLGLEALMSSGRVDNLAVVMGLHPDYFTSFWRLHYLLLHTDGPLASSWRHYIAIMAAARHQCSYLVGSHMAEFLQTGGDPEWLLGLHRAPEKLRKLSEINKLLAHRPWLITKEHIQALLKTGEHTWSLAELIQALVLLTHCHSLSSFVFGCGILPEGDADGSPAPQAPTPPSEQSSPPSRDPLNNSGGFESARDVEALMERMQQLQESLLRDEGTSQEEMESRFELEKSESLLVTPSADILEPSPHPDMLCFVEDPTFGYEDFTRRGAQAPPTFRAQDYTWEDHGYSLIQRLYPEGGQLLDEKFQAAYSLTYNTIAMHSGVDTSVLRRAIWNYIHCVFGIRYDDYDYGEVNQLLERNLKVYIKTVACYPEKTTRRMYNLFWRHFRHSEKVHVNLLLLEARMQAALLYALRAITRYMT”, the “soluble on expression in E. coli” value is listed as “not soluble”. In the case of “SKDFMISAKGTFTYAKNQYMEIDEPDYEYAYMSQVGRPLNQYKGYIALGLFKDQEEIDNSPKQILTGVVQPGDIKYADLNNDGKIDGNDQTYIGNPELPQISYGLGVSIQYKKWDASIFFQGVGKRSIMLSDIHPFGGESYGVMQFVADNHWTEANPNPEAMYPRLTNGKNNNNNPNSTYWLRDGSYIRLKNVELGYSYKFLRAYISGQNLLTFSKFKLWDPELYTSNGLKYPTQIMGSIGLQFTF”, the “soluble on expression in E. coli” value was “not soluble”. On to “SKGIKSEEVKINNIAIEINKATKRDPGNCNLDNHIKPSPDSSLDNQMKLSCESAPDQNFSICSASEVETNPLENTAAASTLLSQAKIDEDRTFPGSAPNQQHSVLSDEASINRKNRDVPPNHSQLKHDSHLEITIPKSLKLKDSEKVDEKQLVIDAGHKRFGAVSCNICGMLYTASNPEDETQHLLFHNQFISAVKYVVLLINHHECGSEEEFITSLFLSMSNFRYTQRSLLPY”, for which the “soluble on expression in E. coli” value is “soluble”.

As for “SKIADPAFLRRLGYKIEFKPLSLTDYQALWMSLAKDYQMTLVPEFFETLSQLHRDNDVAYFPCLPKDLLGISRDILVFEGKEKIVSSDILTRAWGLYFTVDE”, the “soluble on expression in E. coli” value is recorded as “soluble”. On to “SKMTYADGTPIANIKSDLIRTRINGDQMSPLLKKAIISTEDEYFEEHHGVVPKALVRALISDATGIGGSSGGSTLTQQLVKQQILTDETTFKRKANEILLALRIEKYFSKDEIVTTYLNVSPFGRNNKGENIAGVEEAAKGLFGKSAKDLNLPQAAFIAGLPQSPIVYTPYTNT”, for which the “soluble on expression in E. coli” value is on record as “not soluble”. As for “SLAFEPPRRLVRAFGETAPEGDDWLATLPEVAERAVARRGLTVERVQVPGGRSSLVVLVRTAEGAPAVLKLAPRRARPESERAALVHWGGRGAVQVREEGDEEGVLLLERLHPDVSVRSLPEAKALLEAAGTLRRLWVEPPGSHPFETVAERTGRQAEAMRAGAAADAQVAPLVDAALAARAELLGGPSEQRLLHGTFRQSKVLAGDRMPWLAVGPDPVVGESAFDLARLVRDRVEDLIAQPSGASTTRRRIKRLAESLEVDQERLRGWTLFRAVESGVRARRVGRERDAELLLEFAGWL”, the “soluble on expression in E. coli” value was “soluble”.
